Among the data in article PMC6921966 (2019) are Ka values, retold here.

The assay has as its target M2e-VHH-23m (llama). Nature of the assay: ITC. A general note: Isothermal titration calorimetry measures the heat released or taken up as one component is titrated into another.

Chain of M2e-VHH-23m (llama) (VHH, as listed by the source): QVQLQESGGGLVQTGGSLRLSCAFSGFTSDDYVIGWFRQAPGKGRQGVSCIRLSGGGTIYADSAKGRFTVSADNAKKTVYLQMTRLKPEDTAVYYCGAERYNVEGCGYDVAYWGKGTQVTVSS

Consider SLLTEVETPIRNEWGCRCNDSSD [human H3N2 M2e peptide], for which the Ka is 1.37e+06 M⁻¹.
